Oligonucleotides are written 5' to 3', each unit as a sugar letter and its base; * is a phosphorothioate linkage, no mark a phosphodiester; rarer units and linkages stand in square brackets, end groups in braces. Plain capitals give the bases only. r = 2'-OH (RNA); f = 2'-fluoro
T1: chymase (Homo sapiens, UniProt P23946)
T1 sequence (P23946 22-247): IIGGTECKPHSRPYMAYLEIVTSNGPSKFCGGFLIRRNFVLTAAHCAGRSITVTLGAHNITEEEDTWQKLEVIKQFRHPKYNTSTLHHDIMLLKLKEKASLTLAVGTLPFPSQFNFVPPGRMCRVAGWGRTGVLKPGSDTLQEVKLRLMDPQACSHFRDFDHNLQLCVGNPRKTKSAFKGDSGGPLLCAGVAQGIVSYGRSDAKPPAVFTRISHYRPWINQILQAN

T2: chymase (recombinant, manufactured by SIGMA) (Homo sapiens, UniProt P23946)
T2 construct: purchased SIGMA; host or cells: yeast
T2 sequence (P23946 22-247): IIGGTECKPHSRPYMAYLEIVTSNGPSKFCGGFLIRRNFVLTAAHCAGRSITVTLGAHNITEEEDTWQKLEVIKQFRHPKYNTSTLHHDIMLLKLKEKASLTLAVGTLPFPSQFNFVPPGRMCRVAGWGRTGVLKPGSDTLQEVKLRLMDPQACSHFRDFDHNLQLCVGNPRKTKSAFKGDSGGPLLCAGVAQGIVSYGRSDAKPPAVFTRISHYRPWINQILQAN

T3: chymase (recombinant) (UniProt P23946 P23946:22-247)
T3 sequence: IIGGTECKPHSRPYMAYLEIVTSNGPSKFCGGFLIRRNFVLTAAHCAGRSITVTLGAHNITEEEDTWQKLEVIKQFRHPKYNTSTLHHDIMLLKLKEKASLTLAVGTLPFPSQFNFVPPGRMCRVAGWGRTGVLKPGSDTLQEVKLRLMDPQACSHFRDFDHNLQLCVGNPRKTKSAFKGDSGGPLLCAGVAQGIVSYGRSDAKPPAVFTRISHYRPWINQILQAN


Target: T1, chymase
Assay: Surface plasmon resonance (Biacore T100), aptamer immobilized on SA chip, chymase injected as analyte
Assay type: binding
Details: Table 1; about 1000 RU nucleic acid immobilized, chymase 0.2 μM analyte, running buffer solution A; compared with 40N
Method: (§1) Binding strength is measured using Biacore T100 (manufactured by GE Healthcare). In a method of measurement, the aptamer is first immobilized onto a sensor chip, the amount immobilized being about 1000 RU. 20 μL of a chymase solution for analyte, prepared at 0.2 μM, is injected, and the binding of chymase to the aptamer is detected. An RNA comprising a random nucleotide sequence of 30 or 40 nucleotides is used as a negative control.
(§2) The binding activities against chymase of the nucleic acids shown by SEQ ID NO: 4-20 and 22-34 were determined by the surface plasmon resonance method using Biacore T100 (manufactured by GE Healthcare). The sensor chip used was the SA chip, which had streptavidin immobilized thereon. Bound thereto was about 1500 RU of a 16-nucleotide Poly dT with biotin bound to the 5′ end thereof. […] 20 μL of chymase for analyte, prepared at 0.2 μM, was injected. Solution A was used as a running buffer.
(§3) The binding activities against chymase of the nucleic acids shown by SEQ ID NO: 38-48 were evaluated by the surface plasmon resonance method. In the evaluations for SEQ ID NO: 38-48, measurements were taken in the same manner as Example 1. Solution C was used as a running buffer.

Molecule	Binding activity as determined using Biacore
GGGACGGUAGGAAUUCGUCCCUCUUGUCUAUUUUGCAGAUAGACUUAAAGCAAACAUAGAAGAGCGGCCGC (nucleic acid) rGrGrGrAfCrGrGfUrArGrGrArAfUfUfCrGfUfCfCfCfUfCfUfUrGfUfCfUrAfUfUfUfUrGfCrArGrAfUrArGrAfCfUfUrArArArGfCrArArAfCrAfUrArGrArArGrArGfCrGrGfCfCrGfC	higher binding activity than 40N
GGGACGGUAGGAAUUCGUCCCUCAUGUCUAUUUUGCAGAUAGACUUAAAGCAAACAUAGAAGAGCGGCCGC (nucleic acid) rGrGrGrAfCrGrGfUrArGrGrArAfUfUfCrGfUfCfCfCfUfCrAfUrGfUfCfUrAfUfUfUfUrGfCrArGrAfUrArGrAfCfUfUrArArArGfCrArArAfCrAfUrArGrArArGrArGfCrGrGfCfCrGfC	equivalent binding activity compared with 40N
GGGACGGUAGGAAUUCGUCCUCAUGUCUAUUUUGCAGAUAGACUUAAAGCAAACAUAGAAGAGCGGCCGC (nucleic acid) rGrGrGrAfCrGrGfUrArGrGrArAfUfUfCrGfUfCfCfUfCrAfUrGfUfCfUrAfUfUfUfUrGfCrArGrAfUrArGrAfCfUfUrArArArGfCrArArAfCrAfUrArGrArArGrArGfCrGrGfCfCrGfC	equivalent binding activity compared with 40N

Target: T1, chymase
Assay: as above
Assay type: binding
Parameters: key: ++: a sequence that binds to chymase significantly more strongly than the negative control 30N
Details: Table 2; same manner as Example 1, running buffer solution C; compared with 30N
Method: as §1, §2, §3

Molecule	Binding activity as determined using Biacore
41 (nucleic acid, aptamer; 2'-fluoro at CU, RNA at AG, backbone not given here) GGGAGCAGGAGAGAGGUCAGAUGGUGAGAUAGAGUUAAACACCACAAUAGUAGCCUAUGCGUGCUAGUGUGA	++

Target: T2, chymase (recombinant, manufactured by SIGMA)
Assay: Chymase inhibitory activity using synthetic substrate Suc-Ala-Ala-Pro-Phe-MCA
Assay type: biochemical
Details: Table 3; substrate 100 μM, solution C, 37° C.; mean value for 2 to 3 measurements
How it was run: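 Human recombinant chymase (16.7 nM or 1.67 nM final) preincubated 5 min at 37° C., then added to nucleic acid (0.0027–2 μM serial dilutions) and 100 μM substrate in solution C. AMC fluorescence (ex 380/em 460 nm) followed 5 or 30 min at 37° C.; slope gives initial velocity, inhibition versus no-inhibitor control yields IC50.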

Molecule	IC50
41 (nucleic acid, aptamer; 2'-fluoro at CU, RNA at AG, backbone not given here) GGGAGCAGGAGAGAGGUCAGAUGGUGAGAUAGAGUUAAACACCACAAUAGUAGCCUAUGCGUGCUAGUGUGA	60 ± 17 nM

Target: T3, chymase (recombinant)
Assay: inhibition; SPR ++ (Table 2)
Details: tags: SIGMA, expressed in yeast
Method: Here, Suc is a protecting succinyl group, and MCA is a 4-methylcoumaryl-7-amide group; upon cleavage of the C-terminal side of phenylalanine, AMC (7-amino-4-methyl-coumarine) is released. By detecting the fluorescence of this AMC, the enzyme activity of chymase can be determined. The assay was performed using a 96-well plate (F16 Black Maxisorp Fluoronunc, manufactured by Nunc), with a reaction mixture volume of 100 μL, in solution C as a buffer solution. First, each nucleic acid was serially diluted to 0.0027-2 μM concentrations in solution C to obtain 50 μL solutions. After 10 μL of the 1 mM substrate prepared in solution C was added thereto, the plate was set to the microplate reader SpectraMax190 (manufactured by Molecular Devices Corporation), and incubated at 37° C. for 5 minutes. Separately, 0.05 μg (or 0.005 μg) of chymase (recombinant, manufactured by SIGMA) was diluted in solution C to obtain a 40 μL chymase solution, and incubated at 37° C. for 5 minutes. The chymase solution was added to the mixture of the nucleic acid and substrate to initiate an enzyme reaction. The final chymase concentration in the reaction mixture was 16.7 nM (or 1.67 nM), the final substrate concentration being 100 μM. The plate containing the reaction mixture was set to the microplate reader SpectraMax190 (manufactured by Molecular Devices Corporation), and examined for time-dependent changes in the fluorescence intensity at 37° C. for 5 minutes (or 30 minutes) (excitation wavelength 380 nm, detection wavelength 460 nm). A linear approximation of the increase in the fluorescence of the AMC released from the substrate by chymase activity was generated, and its slope was taken as the initial velocity […]. For control, samples were treated and analyzed in the same manner in two cases: use of a 30N or 40N (a nucleotide of 30 or 40 consecutive bases represented by N; N is A, G, C or T) nucleic acid pool (negative control), and use of chymostatin, a known chymotrypsin-like serine protease inhibitor (positive control). Taking the initial reaction velocity without the nucleic acid and inhibitor (V_0) as a 100% enzyme activity, the inhibitory rate of each test substance was calculated using the following equation: […]

Molecule	IC50
SEQ 38 (ssRNA, 2'-F pyrimidines) RNA: GGGAGCAGGAGAGAGGUCAGAUGGAUAGAGUUAAGAUCUGGCUGGCGCAUUAGCCUAUGCGUGCUAGUGUGA	50 nM
SEQ 40 (ssRNA, 2'-F pyrimidines) RNA: GGGAGCAGGAGAGAGGUCAGAUGAACGGAUAGAGCUAAGAGUUCGUCAGAGGGGCCUAUGCGUGCUAGUGUGA	140 nM
SEQ 41 (ssRNA, 2'-F pyrimidines) RNA: GGGAGCAGGAGAGAGGUCAGAUGGUGAGAUAGAGUUAAACACCACAAUAGUAGCCUAUGCGUGCUAGUGUGA	60 nM
SEQ 42 (ssRNA, 2'-F pyrimidines) RNA: GGGAGCAGGAGAGAGGUCAGAUGCGUGAUCGUGCAAGGCGGAUAGAGUUAAGGCCUAUGCGUGCUAGUGUGA	124 nM
SEQ 43 (ssRNA, 2'-F pyrimidines) RNA: GGGAGCAGGAGAGAGGUCAGAUGAUGCCAAGAUAGAUUUAAAUGGCGUUUGGGCCUAUGCGUGCUAGUGUGA	81 nM
SEQ 44 (ssRNA, 2'-F pyrimidines) RNA: GGGAGCAGGAGAGAGGUCAGAUGUUAGACCAAAGCAUAGGAGAUAGAGUUAAACCUAUGCGUGCUAGUGUGA	49 nM
SEQ 45 (ssRNA, 2'-F pyrimidines) RNA: GGGAGCAGGAGAGAGGUCAGAUGGACCACCGAUGGGCAAGAUAGAGUUAAAUGCCUAUGCGUGCUAGUGUGA	74 nM
SEQ 46 (ssRNA, 2'-F pyrimidines) RNA: GGGAGCAGGAGAGAGGUCAGAUGGGACAGAUAGAGUUAAAGUCCGUUACGUGGCCUAUGCGUGCUAGUGUGA	38 nM
SEQ 47 (ssRNA, 2'-F pyrimidines) RNA: GGGAGCAGGAGAGAGGUCAGAUGGUGAUAGAUAGAGUUAAAAUCGCUGAAUGGCCUAUGCGUGCUAGUGUGA	58 nM
SEQ 48 (ssRNA, 2'-F pyrimidines) RNA: GGGAGCAGGAGAGAGGUCAGAUGUGAAGAUAGAGAUAAAUCACAUACAGUCGGCCUAUGCGUGCUAGUGUGA	95 nM

Source: patent US9012420B2, “Aptamer for chymase, and use thereof” (Ribomic Inc., priority 2009, dated 2015)
